Tests used:
[1] = target: purified recombinant A3G-His6 (human APOBEC3G with C-terminal Myc-His6 tag, expressed in 293T cells) (human) (UniProt Q9HC16); assay: cell-based or functional assay
[2] = target: virion-associated A3G (endogenous A3G of H9 cells packaged in HIV-1 particles) (human) (UniProt Q9HC16); assay: cell-based or functional assay

Sequence of purified recombinant A3G-His6 (human APOBEC3G with C-terminal Myc-His6 tag, expressed in 293T cells) (human) (Q9HC16 whole entry): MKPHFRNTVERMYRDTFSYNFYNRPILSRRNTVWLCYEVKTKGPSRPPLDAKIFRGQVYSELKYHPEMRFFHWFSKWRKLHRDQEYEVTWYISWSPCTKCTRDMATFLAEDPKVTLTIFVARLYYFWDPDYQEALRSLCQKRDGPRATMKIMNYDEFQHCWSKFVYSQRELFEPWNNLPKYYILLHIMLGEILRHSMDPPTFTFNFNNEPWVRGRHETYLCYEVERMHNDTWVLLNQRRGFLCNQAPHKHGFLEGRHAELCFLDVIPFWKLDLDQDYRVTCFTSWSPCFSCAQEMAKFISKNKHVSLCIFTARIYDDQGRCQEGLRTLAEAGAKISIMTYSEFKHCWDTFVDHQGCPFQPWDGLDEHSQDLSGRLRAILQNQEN

Substance | inhibition of A3G deaminase activity [1] [µM] | further results
BSA (from UniProt P02769 25-607) |  | A3G deaminase activity [1]: 10 µM
Vif9-23 peptide | 1 | 
Vif37-51 peptide | 1 | 
Vif101-115 peptide | 1 | 
Vif113-127 peptide | 1 | 
Vif molecules associated with HIV-1 particles (wt HIV-1 HXB2 virions) (from UniProt P05900 1-192) |  | specific activity of virion-associated A3G deaminase (wt vs Δvif particles, normalized to A3G protein content) [2]: 36.5%
